Data as given in US12618845B2, “Methods and compositions for protein sequencing” (Quantum-Si Incorporated, priority 2018, dated 2026).
Like-named read-outs stand apart in the source and are kept apart here.

Test system: peptide substrates
Type: biochemical

B1: VPr: Vibrio proteolyticus aminopeptidase (protein)
chain: MPPITQQATVTAWLPQVDASQITGTISSLESFTNRFYTTTSGAQASDWIASEWQALSASLPNASVKQVSHSGYNQKSVVMTITGSEAPDEWIVIGGHLDSTIGSHTNEQSVAPGADDDASGIAAVTEVIRVLSENNFQPKRSIAFMAYAAEEVGLRGSQDLANQYKSEGKNVVSALQLDMTNYKGSAQDVVFITDYTDSNFTQYLTQLMDEYLPSLTYGFDTCGYACSDHASWHNAGYPAAMPFESKFNDYNPRIHTTQDTLANSDPTGSHAKKFTQLGLAYAIEMGSATGDTPTPGNQ
HPLC Assay Conv (substrate AAMAAM{LYSN3}NH2 (SEQ ID NO: 74), 1 mM peptide, 2 mM enzyme, 2.5 mM ZnCl2, 25 mM Tris pH 8.0, 30° C./1 hr): 100%
HPLC Assay Conv (substrate AAPAAP{LYSN3}NH2 (SEQ ID NO: 98), 1 mM peptide, 2 mM enzyme, 2.5 mM ZnCl2, 25 mM Tris pH 8.0, 30° C./1 hr): 100%
HPLC Assay Conv (substrate AAPFQQ (SEQ ID NO: 118), 1 mM Peptide, 1 μM enzyme, 10 mM Mg(OAc)2, 50 mM MOPS pH 8, 60 mM KOAc, RT/0.5 hr): 100%
HPLC Assay Conv (substrate CCPFQQ (SEQ ID NO: 144), 1 mM Peptide, 1 μM enzyme, 10 mM Mg(OAc)2, 50 mM MOPS pH 8, 60 mM KOAc, RT/0.5 hr): 70%
HPLC Assay Conv (substrate DDPFQQ (SEQ ID NO: 126), 1 mM Peptide, 1 uM enzyme, 10 mM Mg(OAc)2, 50 mM MOPS pH 8, 60 mM KOAc, RT/0.5 hr): 0%
HPLC Assay Conv (substrate EEPFQQ (SEQ ID NO: 128), 1 mM Peptide, 1 uM enzyme, 10 mM Mg(OAc)2, 50 mM MOPS pH 8, 60 mM KOAc, RT/0.5 hr): 0%
HPLC Assay Conv (substrate FFPFFP{LYSN3}NH2 (SEQ ID NO: 94), 1 mM peptide, 2 mM enzyme, 2.5 mM ZnCl2, 25 mM Tris pH 8.0, 30° C./1 hr): 100%
HPLC Assay Conv (substrate FFPFQQ (SEQ ID NO: 124), 1 mM Peptide, 1 μM enzyme, 10 mM Mg(OAc)2, 50 mM MOPS pH 8, 60 mM KOAc, RT/0.5 hr): 100%
HPLC Assay Conv (substrate GGPFQQ (SEQ ID NO: 152), 1 mM Peptide, 1 μM enzyme, 10 mM Mg(OAc)2, 50 mM MOPS pH 8, 60 mM KOAc, RT/0.5 hr): 8%
HPLC Assay Conv (substrate HHPFQQ (SEQ ID NO: 154), 1 mM Peptide, 1 μM enzyme, 10 mM Mg(OAc)2, 50 mM MOPS pH 8, 60 mM KOAc, RT/0.5 hr): 12%
HPLC Assay Conv (substrate IIPFQQ (SEQ ID NO: 136), 1 mM Peptide, 1 μM enzyme, 10 mM Mg(OAc)2, 50 mM MOPS pH 8, 60 mM KOAc, RT/0.5 hr): 100%
HPLC Assay Conv (substrate KKMKKM{LYSN3}NH2 (SEQ ID NO: 89), 1 mM peptide, 2 mM enzyme, 2.5 mM ZnCl2, 25 mM Tris pH 8.0, 30° C./1 hr): 100%
HPLC Assay Conv (substrate KKPFQQ (SEQ ID NO: 120), 1 mM Peptide, 1 μM enzyme, 10 mM Mg(OAc)2, 50 mM MOPS pH 8, 60 mM KOAc, RT/0.5 hr): 32%
HPLC Assay Conv (substrate KKPKKP{LYSN3}NH2 (SEQ ID NO: 100), 1 mM peptide, 2 mM enzyme, 2.5 mM ZnCl2, 25 mM Tris pH 8.0, 30° C./1 hr): 100%
HPLC Assay Conv (substrate LLPFQQ (SEQ ID NO: 138), 1 mM Peptide, 1 μM enzyme, 10 mM Mg(OAc)2, 50 mM MOPS pH 8, 60 mM KOAc, RT/0.5 hr): 100%
HPLC Assay Conv (substrate MMPFQQ (SEQ ID NO: 148), 1 mM Peptide, 1 μM enzyme, 10 mM Mg(OAc)2, 50 mM MOPS pH 8, 60 mM KOAc, RT/0.5 hr): 100%
HPLC Assay Conv (substrate NNPFQQ (SEQ ID NO: 130), 1 mM Peptide, 1 μM enzyme, 10 mM Mg(OAc)2, 50 mM MOPS pH 8, 60 mM KOAc, RT/0.5 hr): 15%
HPLC Assay Conv (substrate PPPFQQ (SEQ ID NO: 150), 1 mM Peptide, 1 μM enzyme, 10 mM Mg(OAc)2, 50 mM MOPS pH 8, 60 mM KOAc, RT/0.5 hr): 0%
HPLC Assay Conv (substrate QP5-Atto649N ([…]{LYSN3}NH2) (SEQ ID NO: 106), 37 μM Peptide, 8 μM Enzyme, 2.5 mM ZnCl2, 25 mM Tris pH 8.0, 37° C./0.5 hr): 100%
HPLC Assay Conv (substrate QP15 […]{LYSN3}NH2 (SEQ ID NO: 107), 1200 μM Peptide, 0.008 μM enzyme, 10 mM Mg(OAc)2, 50 mM MOPS pH 5.5, RT/0.5 hr): 1.40%
HPLC Assay Conv (substrate QP15 […]{LYSN3}NH2 (SEQ ID NO: 107), 1200 μM Peptide, 0.008 μM enzyme, 10 mM Mg(OAc)2, 50 mM MOPS pH 6.5, RT/0.5 hr): 56%
HPLC Assay Conv (substrate QQPFQQ (SEQ ID NO: 132), 1 mM Peptide, 1 μM enzyme, 10 mM Mg(OAc)2, 50 mM MOPS pH 8, 60 mM KOAc, RT/0.5 hr): 66%
HPLC Assay Conv (substrate RRPFQQ (SEQ ID NO: 116), 1 mM Peptide, 1 μM enzyme, 10 mM Mg(OAc)2, 50 mM MOPS pH 8, 60 mM KOAc, RT/0.5 hr): 79%
HPLC Assay Conv (substrate RRPRRP{LYSN3}NH2 (SEQ ID NO: 96), 1 mM peptide, 2 mM enzyme, 2.5 mM ZnCl2, 25 mM Tris pH 8.0, 30° C./1 hr): 100%
HPLC Assay Conv (substrate SSPFQQ (SEQ ID NO: 140), 1 mM Peptide, 1 μM enzyme, 10 mM Mg(OAc)2, 50 mM MOPS pH 8, 60 mM KOAc, RT/0.5 hr): 48%
HPLC Assay Conv (substrate TTPFQQ (SEQ ID NO: 142), 1 mM Peptide, 1 μM enzyme, 10 mM Mg(OAc)2, 50 mM MOPS pH 8, 60 mM KOAc, RT/0.5 hr): 100%
HPLC Assay Conv (substrate VVPFQQ (SEQ ID NO: 134), 1 mM Peptide, 1 μM enzyme, 10 mM Mg(OAc)2, 50 mM MOPS pH 8, 60 mM KOAc, RT/0.5 hr): 100%
HPLC Assay Conv (substrate WWPFQQ (SEQ ID NO: 146), 1 mM Peptide, 1 μM enzyme, 10 mM Mg(OAc)2, 50 mM MOPS pH 8, 60 mM KOAc, RT/0.5 hr): 82%
HPLC Assay Conv (substrate YYMYYM{LYSN3}NH2 (SEQ ID NO: 103), 1 mM peptide, 2 mM enzyme, 2.5 mM ZnCl2, 25 mM Tris pH 8.0, 30° C./1 hr): >90%
HPLC Assay Conv (substrate YYPFQQ (SEQ ID NO: 122), 1 mM Peptide, 1 μM enzyme, 10 mM Mg(OAc)2, 50 mM MOPS pH 8, 60 mM KOAc, RT/0.5 hr): 56%
HPLC Assay Conv (substrate YYPYYP{LYSN3}NH2 (SEQ ID NO: 92), 1 mM peptide, 2 mM enzyme, 2.5 mM ZnCl2, 25 mM Tris pH 8.0, 30° C./1 hr): 50%
